In article PMC5386860, “Variants of the Sir4 Coiled-Coil Domain Improve Binding to Sir3 for Heterochromatin Formation in Saccharomyces cerevisiae” (G3: Genes|Genomes|Genetics, 2017):
Changes are numbered by the printed parent chain. In names and notes the source's numbering stands. Blank lines part the entries; values can stand above or below the binder they belong to.

Columns and labels:
Sir3 (464–978) = molecular target: T1, Sir3 (464–978) (S. cerevisiae, UniProt P06701 464-978); test: SEC; proteins mixed in equimolar ratio, 40 min on ice; Superdex 200 Increase 3.2/300, isocratic flow, 4°; fractions on SDS-PAGE, Coomassie; conditions: both partners purified
T1 construct: Purification according to Chang et al. (2003) and King et al. (2006); also called wild-type Sir3 fragment; source: E. coli BL21 Rosetta, purified (Ni-IDA, ion exchange, Superdex 200)
T1 sequence (P06701 464-978): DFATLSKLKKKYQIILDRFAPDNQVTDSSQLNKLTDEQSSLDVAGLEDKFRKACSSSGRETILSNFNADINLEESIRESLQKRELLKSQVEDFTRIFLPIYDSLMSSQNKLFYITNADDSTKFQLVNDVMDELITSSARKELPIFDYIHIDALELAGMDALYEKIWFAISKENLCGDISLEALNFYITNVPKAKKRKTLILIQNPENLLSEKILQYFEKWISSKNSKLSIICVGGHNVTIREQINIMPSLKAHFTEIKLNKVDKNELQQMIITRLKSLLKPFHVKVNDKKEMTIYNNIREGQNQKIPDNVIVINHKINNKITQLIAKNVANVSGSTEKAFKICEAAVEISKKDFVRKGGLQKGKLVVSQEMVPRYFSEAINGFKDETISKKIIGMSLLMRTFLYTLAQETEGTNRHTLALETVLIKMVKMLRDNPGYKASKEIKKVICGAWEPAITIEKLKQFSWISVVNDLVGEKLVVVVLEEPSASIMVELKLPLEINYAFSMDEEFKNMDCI

Sir3-1067(464–978) = molecular target: T2, Sir3-1067(464–978) (S. cerevisiae, UniProt P06701 464-978, K657A | K658A); test: as above; conditions: both partners purified
T2 construct: also called mutant Sir3 fragment; source: E. coli BL21 Rosetta, purified (Ni-IDA, ion exchange, Superdex 200)
T2 sequence (P06701 464-978 K657A/K658A): as the sequence (P06701 464-978) above, with K194A, K195A counted along it

binding result (Sir3 (464–978)): binds
B1: Sir4 (1217–1358) (domain or fragment, S. cerevisiae, UniProt P11978 1217-1358, looked up)
chain: SNTTEILTSVDVLGTHSQTGTQQSNMYTSTQKTELEIDNKDSVTECSKDMKEDGLSFVDIVLSKAASALDEKEKQLAVANEIIRSLSDEVMRNEIRITSLQGDLTFTKKCLENARSQISEKDAKINKLMEKDFQVNKEIKPY
notes: source: E. coli BL21 Rosetta, purified (Ni-NTA, Superdex 75)

binding result (Sir3-1067(464–978)): binds
B2: Sir4-ETK (1217–1358) (domain or fragment, S. cerevisiae, UniProt P11978 1217-1358, looked up)
chain: B1 chain with E94V, T98S, K109R
notes: also called Sir4-E1310V, T1314S, K1325R coiled-coil fragment; source: E. coli BL21 Rosetta, purified (Ni-NTA, Superdex 75)
